Reference: the DeepSol protein solubility set

test: soluble on expression in E. coli; label from the status in PepcDB or PDB records

Sequence	soluble on expression in E. coli
MNHMKKNILFDGLRSVARIGETAFVAARAGIKYATEKPSNAKLMRETFESLGSTYIKLGQFIASTPSLFPREYVEEFQGCLDQTPTLPFSYIQEVLAEEFEGRDLNQIFASIDETPLASASIAQVHAARLTTGEDVVIKVQKPGVETILYTDLNVVHWATKMLEKAIPKVKFASLSEIVEEIKIRMVREVDFIEEAQNLDDFVEYLKITNNQAATAPKVYHQFSTRRILTMERLYGVSLTDFDIVKKFAKDPSQVLITAMNTWFGSLMLCKSFHADLHAGNLMLLEDGRIGFIDFGIVGQLNPQVWTACLAFMDALQKTDYTAMAENMLKMGMTKTQIDTQVLAQDLERLFSGVLLADPQEILASKPSDLNDIMLDMVAVGERHGIKFPRDFALLFKQMLYFDRFMRVLAPYTDIYADQRLKMVQTIEPQSLLKH	not soluble
MNIAELYGKMGKHSWRIMDAIFKNLWDYEYVPLQLISSHARIGEEKARNILKYLSDLRVVQNRQKDYEGSTFTFIGLSLYSLHRLVRSGKVDAIGKLMGEGKESAVFNCYSEKFGECVVKFHKVGHTSFKKVKEKRDYGDLHFSVLAIRSARNEFRALQKLQGLAVPKVYAWEGNAVLMELIDAKELYRVRVENPDEVLDMILEEVAKFYHRGIVHGDLSQYNVLVSEEGIWIIDFPQSVEVGEEGWREILERDVRNIITYFSRTYRTEKDINSAIDRILQE	soluble
MNIHKALCLSAGVSVALISLAAQAAETVTIATVNNGDMIRMQRLSKIFEQQHPDIKLNWVVLEENVLRQRLTTDIATQGGQFDVLTIGTYETPLWGAKQWLEPITDLAPEYDLEDIFPSVRQGLSVKNTLYALPFYGESTITYYRTDLFKQAGLSMPERPTWTQLGEFAAKLHQPDKGVYGMCLRGKAGWGENIALLSTMANAFGARWFDEHWKPELNSPEWANAANFYVNTLKNYGPPGVSSNGFNETLALFNSGKCALWVDASVAGSFTTDKEQSKVVDSVGFAPAPVEVTDKGSSWLYAWSLAIPATSRHKDAAKAFITWATSKAYIQLVAEKDGITNVPPGTRTSTYSEAYLKAAPFAKVTLQMMQHADPAQPSAKPVPYVGIQYVTIPEFQAIGTSVGKLFSAAVTGQTTTEQALTAAQAVTEREMKRAGYPK	not soluble
MNILLCCAAGMSSSLIVTKMEKAAEARGIEVKIWAVSGSEVNSHIDEADVLLLGPQVRYLLPKMKELCKGKGVPVDVIQSVHYGLCNGEAILQAALSMKP	not soluble
MNINRNKIVQLADTDTIENLTSALSQRLIADQLRLTTAESCTGGKLASALCAAEDTPKFYGAGFVTFTDQAKMKILSVSQQSLERYSAVSEKVAAEMATGAIERADADVSIAITGYGGPEGGEDGTPAGTVWFAWHIKGQNYTAVMHFAGDCETVLALAVRFALAQLLQLLL	not soluble
MNIREIAAKCSKCGYCTTCPTYRIEGWETVSPRGKIQLALKYVDGEIDVDQKIVKDIFKCSVCGLCQEVCPVELPLIDFWEELRRTLVQKGLAPLSVHRKLREILEHHHHHH	not soluble
MNITKTLCLCAALSGAAGVQAMENREFVTQQDNTRVNNYQTNRPEASKRLFVSQEVERQIDHIKQLLTNAKLAWMFENCFPNTLDTTVHFDGKEDTFVYTGDIHAMWLRDSGAQVWPYVQLANKDPELKKMLAGVINRQFKCINIDPYANAFNMNSEGGEWMSDLTDMKPELHERKWEIDSLCYPIRLAYHYWKTTGDASVFSDEWLQAIANVLKTFKEQQRKDDAKGPYRFQRKTERALDTMTNDGWGNPVKPVGLIASAFRPSDDATTFQFLVPSNFFAVTSLRKAAEILNTVNRKPALAKECTALADEVEKALKKYAVCNHPKYGKIYAFEVDGFGNQLLMDDANVPSLIALPYLGDVKVTDPIYQNTRKFVWSEDNPYFFKGSAGEGIGGPHIGYDMIWPMSIMMKAFTSQNDAEIKTCIKMLMDTDAGTGFMHESFNKNDPKNFTRAWFAWQNTLFGELILKLVNEGKVDLLNSIQLEHHHHHH	soluble
MNKCFLKIAIVAGEESGDLLGADLISCLSQQTGCKIDLIGVGGRHLKALGLKSFFDFQDIALIGLGTVLKKLPLLLIHIHNLSKFIAKEQPDCLIIIDSPDFTHRVAKKVHVLAPSIPIIKYIAPTVWAWRPERAKAMRKFVDHVLAVFPFEKKIMQDLGGPPTTYVGHRLLTYPPLLTIQSKKRHQSEKKHVFAKQTSSPTLVILPGSRNLEIRYLMPIFREAVEILIQRIPHLHIILPTLPHFVDEIRAFVQSWKNKVEILVDEDAKWHAFSKADVALAALGTVSLELALAKIPMVLCYKLDRFSKLFIFPKIMLWSAALPNIISDKPIVPEYFNEFLRPGMLARQIEELLYNPLLRQAQLDVFEMVEQKMKTEVPSGVIAAQTIVTLLKKRSGSLKFS	not soluble
MNKFIQSLPKVELHLHIEGTLEPELMLELAQRNSINIPFNSVEEIRDAYNFHNLQSFLDIYFQGADVLVHEQDFFDLTWAYLLRCQEDNVLHTEIFFDPQAHTERGILFDTVVNGIDRALNKGVSELGITSKLIMCFLRHLDEESAFKTLTQAQAHKDKIIGVGLDSTEIGNPANKFERVFKQAIEQGFLTVAHAGEEGPADNISEALSLLKITRIDHGVRCSEDASLVKQLVSERIPLTVCPLSNIKLKVFDRMEQHNIVTLLRQGVCVTINSDDPAYFGGYMTDNFVAVNNAHPMNKAEIAQFTFNAIEASFVSPSEQERLRQVTQKYIALHQE	not soluble
MNKFSLFFALTATLMTITESAVPTASISAHVLDISGGSPAGGVQILAYIQQNDDWTKIGSEFTQDNGRVDWVSPDFTLIPGTYRLVYITEPYYKAKNVESFYPYVEVVFNIRDATQHYHVPLTLSPWGYSTYRGS	not soluble
MNKHTTLPNLMQKIVSDEDLQSIIEAVGYHDTSRTFTVRTLVDFFLLAALHEWKSFRHGADVAKMYGLPTFHYSTVSKKAKEVPYEVMKRLFALVVSKCNRQTRRSLRFPKALRVVDSTTVTVGKNRLAWAPYHGERSGVKMHVAYSPEQQMPSDIVETVGLRHDGPVGEQLTDAQSVLVEDRAYFKIERIARFVEQKPPFVFG	not soluble
MNKIETDTLLLPVIGESPAGDDIEYDPVYSEIREARQNDPDYMSQGEWAVSEPRRADWRKVRKLCEVTLRNKSKDLQISCWYVESLTHLYALEGMHCGLEYLAKFISQYWTTCWPSQEEGQEIRYSKLVRLDIDLSEYLKAYPLLEDKEITLSEWYKVLSFEHGASLSEAGKERLIESEGDHSVESFKRAVGKYNPRKVSEQLLQLYDLPDKIDEIESSYFFHTHEDIHHIFAKTRHIISEITELLSRFLPQETLDHSSVSQFLGKPDSRDTRTALPEEKKEFYSALTPSTDKEMSREKAIEQLEKIAIFFRQSEPTSPVPYLLERAIRWSTMTMSEWLEELLKDNDSMEQINRVLKG	not soluble
MNKKHYLLYGSERYALAILRPLQAAIRARGDEAAWFFDGPGAEDLAADEQLLSVAQVRLWKPYAVITSSNAVPHFFPGVKVEVFHGFNAGKPRHVYSRGFFDLYCTTGPRDTAAFGELADRLGHFAVKQTGWPKIDPFMGEMSQALVPVRQPPVILYHSTFSPSWSAADILYDEIKRLSLRGEWRWIVTFHPKMNPDVVARYRALQSEHLCFSDNDNILELFPHVDMMCSDTSSALNEFLLTCKPVVTFKNRNPGPQLIDIDDPAQFESAIRRALSRPPELLSAIRAYADAIHPYWDGRSSERVLEAIDAFVAEGGRNRRTKPLNLWRKFKLRKRIGYWGPAWL	not soluble
MNKKRMIAMVSTALLVTGCAEVGNAQTVAVENSGQSVQKNIVKSIQSQANPLKTIEPSKPFEDLKPLKKMIGNAQYVGLGENTHGSSEIFTMKFRLVKYLVTEMGFTNFAMEEDWGNGLKLNEYIQTGKGNPREFLKLLYPTDEIIAMIEWMKDYNADPSNKKKIQFIGLDLKALDQGSFNKVIDYVRLHRPDLLAEVEENYKELSSFTGSIQEYMKLTPKLKEKFKANAERVARLLKDENEQANTEIIPSEYIWAKATASAIEKFTTMLLPNDYPSIIKLHEQYLADHAMWAQETFGGKTMVWAHNIHIAKGIIDEKLYPYVAGQFLKERLDNNYVTIGSTTTEGNFTLYSEYNPSTGGKITTDTIPQDVKSFNYTLGKVPYKMFLLDNRHLKGQAEKWVKAKRPLLSIGGQILPNSSVYFDTSLLEQFDIIFHIRKTSPSHIKLEHHHHHH	soluble
MNKPTLGIDLDTTLNTLDREWVKRYNEIYKDKLLPSDIKGWDIENYVKPECGKKIYDILKEPHFFRNLGVQPFAETALEELTSIFNIYIVSATHYKVCEDKGNWIKEKFPFISYQNIIFCHNKGLVHLDILIDDNPLNLENFKGNKILFDAHHNKSENRFVRARDWYEAKALCESLKDFL	not soluble
MNKQPGEQPVSCATSTGKSEKERQKDEPPRSRAEAGMMRGGGRLPQPRDTPMEVPNMIAAMPIQMTGFVDLAPHTILDVLAQTTSLMIVQCLEPLEIFTGIETPNRYVVHDMYCRPLLYCMERSSFFARQHQGSQRNFAMQCMDIFGAPVMNCFRSRPCCSCDDFLATEFLGQRIGMMKRECCDDNFHLVGTGSNEPLLVRSPGCACCGGTQVFPVMTYNGAKIGEIVRLYPGFMQEWYTDADTYIVHFPPDLPPILKILLISSTFLIDYTFFENRGGNQRGGYGHGGYGYY	not soluble
MNLDDIESLSEQIARHIGEQIITGELVEGERIQELRIAKELDVSRGSVREALLLLERTHLIEIFPRRGAIVSEMSSQQVKALFDSSVLVLGHIVQKISESWRVHEAEQLQHLIEQLNEHVKAGDTEKFYDGIFEYLAQQHDMVMNAYLMKFYKELLPSLRRSYFLTLNTSRRELQEALALFKLVTDAILIRKSHQATLFMEDFCRHLRNLVLESLTRMKQIELAWARRSRRSSNR	not soluble
MNLEQLINVLGLLVWIAARAVSRVGPHGSGLVYRELHDFYGYLQLDLLGPVVAGNRSVRTWREQADRARGTFAWRSGLNTSRILPVGSMYRGSDALPAGLYRPEEEVFLLLNRCHGPLSTPKNACLAEVGVANATFLSRFNVGDFHGASWENGTAPDGEPGVCLEHHHHHH	not soluble
MNLKQISAIIIVKNAKQTLLECLNSLKDFDEIILLNNESSDNTLNIANEFKKDFANLHIYHSAFIGFGALKNLALSYAKNDWILSIDADEVLENECIKELKNLELQEDNIIALSRKNLYKGEWIKACGWWPDYVWRIFNKNFTRFNDNLVHESLVLPSNAKKIYLKNGLRHYAFRDISHLIDKMQYYSSLWAKQNIHKKSGVLKANLRAFWTFFRNYFLKNGFLYGYKGFIISVCNALGTFFKYMKLYELQKQKPKTCALIITTYNQKERLKLVLDSVKNLAFLPNEVLIADDGSKEDTARLIEEYQKDFPCPLKHIWQEDEGFRAAKSRNNAIKASKSEYIILIDGDMILEKDFVKNHLEFAKRKVILQGSRVILNKNESEEILKNNNYSLAFNKKGFKNQRSIFLAKCVYKFSKLTKKFFKKSQLVKGSKTCNMSFYKSDFEAIEGFNEKFIGWGREDSEFVARFLFNDGVFKRLKFNALAYHIYHEENSKNMLEINHQIYLETIKNEKTTWRLEHHHHHH	not soluble
MNLRTQKFHMYFKQWIELYKEGAVRPVTYQKYQMSHKHLVTLAPDLHMDELKRRTYQELINEFAANHEKQTTLDFHHHLKAAILDALDEGILEQDPTRKVLEHHHHHH	not soluble
MNLSNLWQSCLLQLQDQVSASDLSTWLRPLQADVVADNHIVLYASNMFVKGWVETHYLAQIQQICQTLAQNPELRISLKEGVKPAPKIVESTPNTSLRSESAVDFQAESSASVKFESHLNTKHLFDNFVEGKSNQLARAVGQKLAQAPGEPSANPFFLYGGTGLGKTHLLHAIGNGILADKPNARVLYIHANNFMQHMVKAVRDNKMDQFKKFYRSLDALLVDDIQFFAEKEKTQEEFFHIFNSLFETGRQIILTSDRYPKEIEKIEERLKSRFGWGLTTAIEPPDLETRVAILLKKAEEHNMNLPEEVAFFIAQRLRTNVRELEGALNRVKAMQDFKGGDIDIDFVRDTLKDILALQERLVTIENIQKVVAEYYRIKVSDLKSKSRARSVTRPRQIAMALAKELTNRSLPEIGRAFDRDHTTVLNACREVPKFREQDNSIQEDWANLIRTLSALEHHHHHH	soluble
